Data published in paper PMC3740443, “A Novel Function for the Conserved Glutamate Residue in the Walker B Motif of Replication Factor C”.

How the values were obtained:
[1] = target: PCNA (Saccharomyces cerevisiae) (UniProt P15873); assay: surface plasmon resonance; conditions: cited from earlier work
AF488-labeled PCNA [2] = target: AF488-labeled PCNA (UniProt P15873)
MDCC labeled PCNA [3] = target: MDCC labeled PCNA (UniProt P15873); assay: other fluorescence titration; fluorescence intensity of 10 nM PCNA-MDCC at 470 nm, increasing RFC, 0.5 mM ATPγS in place of ATP; assay buffer; equilibrium, quadratic fit
AF488-labeled PCNA [4] = target: AF488-labeled PCNA (UniProt P15873); assay: other fluorescence titration; PCNA opening (unquenching) assay: fluorescence of 10 nM PCNA-AF488_2 at 517 nm, increasing RFC, 0.5 mM ATPγS in place of ATP; assay buffer; equilibrium, quadratic fit
AF488-labeled PCNA [5] = target: AF488-labeled PCNA (UniProt P15873); assay: other fluorescence titration; PCNA opening (unquenching) assay: fluorescence of 10 nM PCNA-AF488_2 at 517 nm, increasing RFC, 0.5 mM ATP; assay buffer; equilibrium, quadratic fit
MDCC labeled PCNA [6] = target: MDCC labeled PCNA (UniProt P15873); assay: other fluorescence titration; fluorescence intensity of 10 nM PCNA-MDCC at 470 nm, increasing RFC, 0.5 mM ATP; assay buffer 30 mM HEPES-NaOH pH 7.5, 150 mM NaCl, 10 mM MgCl2, 0.5 mM EDTA, 2 mM DTT, 2% glycerol; equilibrium, quadratic fit
AF488-labeled PCNA [7] = target: AF488-labeled PCNA (UniProt P15873); remark: listed apart in the source
[8] = target: RFC WB-EQ (Walker B Glu to Gln quadruple mutant) (Saccharomyces cerevisiae, UniProt P38630;P40348;P38629;P40339;P38251 284-861;1-353;1-340;1-323;1-354, E425Q;E141Q;E118Q;E115Q); assay: fluorescence anisotropy; 0.5 mM ATPgS; no PCNA; 20 nM p/t DNA-RhX, 0.5 mM ATPgS, varied RFC, with or without 2 uM PCNA; buffer, salt, pH and temperature not in the material (Section 3.1 text missing); conditions: protein: recombinant; tags: Rfc1 N-terminal 6xHis and kinase recognition motif replacing residues 1-283; copies: 1;1;1;1;1; label: X-rhodamine (RhX) on 5' end of template; primer-template: 26 bp duplex with 34 nt 5' template overhang
[9] = target: RFC clamp loader (WT; Rfc1 N-terminal truncation) (Saccharomyces cerevisiae, UniProt P38630;P40348;P38629;P40339;P38251 284-861;1-353;1-340;1-323;1-354); assay: as above; conditions: protein: recombinant; tags: Rfc1 N-terminal 6xHis and kinase recognition motif replacing residues 1-283; copies: 1;1;1;1;1; label: X-rhodamine (RhX) on 5' end of template; primer-template: 26 bp duplex with 34 nt 5' template overhang
[10] = target: RFC WB-EA (Walker B Glu to Ala quadruple mutant) (Saccharomyces cerevisiae, UniProt P38630;P40348;P38629;P40339;P38251 284-861;1-353;1-340;1-323;1-354, E425A;E141A;E118A;E115A); assay: as above; conditions: protein: recombinant; tags: Rfc1 N-terminal 6xHis and kinase recognition motif replacing residues 1-283; copies: 1;1;1;1;1; label: X-rhodamine (RhX) on 5' end of template; primer-template: 26 bp duplex with 34 nt 5' template overhang
[11] = target: RFC WB-EA (Walker B Glu to Ala quadruple mutant);PCNA (Saccharomyces cerevisiae;Saccharomyces …, UniProt P38630;P40348;P38629;P40339;P38251;P15873 284-861;1-353;1-340;1-323;1-354;1-258, E425A;E141A;E118A;E115A|); assay: fluorescence anisotropy; 0.5 mM ATPgS; 2 uM PCNA; 20 nM p/t DNA-RhX, 0.5 mM ATPgS, varied RFC, with or without 2 uM PCNA; buffer, salt, pH and temperature not in the material (Section 3.1 text missing); conditions: protein: recombinant;recombinant; tags: Rfc1 N-terminal 6xHis and kinase recognition motif replacing residues 1-283;; copies: 1;1;1;1;1;3; label: X-rhodamine (RhX) on 5' end of template; primer-template: 26 bp duplex with 34 nt 5' template overhang
[12] = target: RFC WB-EQ (Walker B Glu to Gln quadruple mutant);PCNA (Saccharomyces cerevisiae;Saccharomyces …, UniProt P38630;P40348;P38629;P40339;P38251;P15873 284-861;1-353;1-340;1-323;1-354;1-258, E425Q;E141Q;E118Q;E115Q|); assay: as above; conditions: protein: recombinant;recombinant; tags: Rfc1 N-terminal 6xHis and kinase recognition motif replacing residues 1-283;; copies: 1;1;1;1;1;3; label: X-rhodamine (RhX) on 5' end of template; primer-template: 26 bp duplex with 34 nt 5' template overhang
[13] = target: RFC clamp loader (WT; Rfc1 N-terminal truncation);PCNA (Saccharomyces cerevisiae;Saccharomyces …, UniProt P38630;P40348;P38629;P40339;P38251;P15873 284-861;1-353;1-340;1-323;1-354;1-258, |); assay: as above; conditions: protein: recombinant;recombinant; tags: Rfc1 N-terminal 6xHis and kinase recognition motif replacing residues 1-283;; copies: 1;1;1;1;1;3; label: X-rhodamine (RhX) on 5' end of template; primer-template: 26 bp duplex with 34 nt 5' template overhang

Sequence of PCNA (Saccharomyces cerevisiae) (P15873 whole entry): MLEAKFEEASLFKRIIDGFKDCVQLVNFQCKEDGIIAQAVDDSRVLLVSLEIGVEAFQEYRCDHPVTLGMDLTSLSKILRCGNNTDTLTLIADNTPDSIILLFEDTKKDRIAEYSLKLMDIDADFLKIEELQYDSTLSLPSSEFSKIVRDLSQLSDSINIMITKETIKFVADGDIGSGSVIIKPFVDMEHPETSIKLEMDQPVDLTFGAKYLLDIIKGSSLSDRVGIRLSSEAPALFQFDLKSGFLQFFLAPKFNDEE

Replication factor C (from UniProt P38630)
Kd [1]: 1.3 nM

wild-type replication factor C (RFC) complex, Rfc1 lacking its first 283 residues (from UniProt P38630 284-861; P40348 1-353; P38629 1-340; P40339 1-323; P38251 1-354)
PCNA opening: increase of AF488 fluorescence of 10 nM PCNA-AF488 2 at saturating RFC, 0.5 mM ATP (AF488-labeled PCNA [2]): 2 fold
Kd (MDCC labeled PCNA [3]): 13 nM
Kd (AF488-labeled PCNA [4]): 5.8 nM
Kd (AF488-labeled PCNA [5]): 11 nM
Kd (MDCC labeled PCNA [6]): 7.1 nM
PCNA opening: increase of AF488 fluorescence of 10 nM PCNA-AF488 2 at saturating RFC, 0.5 mM ATPγS (AF488-labeled PCNA [7]): 1.5 fold

B1: p/t DNA-RhX (26/60-mer primed template) (dsDNA)
DNA 1: TTCAGGTCAGAAGGGTTCTATCTCTGTTGGCCAGAATGTCCCTTTTATTACTGGTCGTGT
DNA 2: ACACGACCAGTAATAAAAGGGACATT
modifications: 5' C6 amino linker on the 60-mer template
Kd [8]: 690 ± 400 nM
Kd [9]: 91 ± 28 nM
Kd [10]: 1060 ± 200 nM
Kd [11]: 1800 ± 700 nM
Kd [12]: 460 ± 200 nM
Kd [13]: 37 ± 13 nM
